US20260317399 (published 2026)
Numbering of substitutions follows the chain as printed.

T1: FcgRIIaH (human, UniProt P12318)
T1 chain: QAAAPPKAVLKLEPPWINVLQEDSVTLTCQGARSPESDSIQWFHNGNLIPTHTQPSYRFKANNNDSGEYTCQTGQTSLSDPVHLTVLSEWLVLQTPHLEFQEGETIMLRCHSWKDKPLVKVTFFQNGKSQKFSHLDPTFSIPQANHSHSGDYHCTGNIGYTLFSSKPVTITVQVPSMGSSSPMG

T2: FcgRIa (human, UniProt P12314)
T2 chain: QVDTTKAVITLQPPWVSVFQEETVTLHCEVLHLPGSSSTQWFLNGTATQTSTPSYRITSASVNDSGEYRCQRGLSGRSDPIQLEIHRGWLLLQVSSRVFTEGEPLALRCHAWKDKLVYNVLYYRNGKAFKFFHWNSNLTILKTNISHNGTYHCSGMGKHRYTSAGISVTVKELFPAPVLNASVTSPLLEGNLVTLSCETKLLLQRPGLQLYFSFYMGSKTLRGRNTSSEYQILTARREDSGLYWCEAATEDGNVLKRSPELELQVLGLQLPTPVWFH

B1: IL6R-AP002/IL6R-BP257/IL6R-L (antibody)
chain 1: QVQLQESGPGLVKPSETLSLTCAVSGHSISHDHAWSWVRQPPGEGLEWIGFISYSGITNYNPSLQGRVTISRDNSKNTLYLQMNSLRAEDTAVYYCARSLARTTAMDYWGEGTLVTVSSASTKGPSVFPLAPSSKSTSGGTAALGCLVKDYFPEPVTVSWNSGALTSGVHTFPAVLQSSGLYSLSSVVTVPSSSLGTQTYICNVNHKPSNTKVDKKVEPKSCDKTHTCPPCPAPDLLGDDSVFLFPPKPKDTLMISRTPEVTCVVVDVSDEDGEVKFNWYVDGVEVHNAKTKPREEQYNSTYRVVSVLTVLHQDWLNGKEYKCKVSNKALPRPIEKTISKAKGQPREPQVYTLPPSRKELTKNQVSLTCLVKGFYPSDIAVEWESNGQPENNYKTTPPVLDSDGSFFLYSKLTVDKSRWQQGNVFSCSVMHEALHNRYTQKSLSLSP
chain 2: B1 chain 1 with S126E, K358D, R437H, K441E
chain 3: not shown
B2: IL6R-AP002/IL6R-BP256/IL6R-L (antibody)
chain 1: B1 chain 1
chain 2: B1 chain 1 with S126D, K358D, R437H, K441E
chain 3: not shown
B3: IL6R-AP009/IL6R-BP260/IL6R-L (antibody)
chain 1: B1 chain 1 with Y298D
chain 2: B1 chain 1 with S126E, Y298D, K358D, R437H, K441E
chain 3: not shown
B4: IL6R-BP257/IL6R-L (antibody)
chain 1: B1 chain 1 with S126E, K358D, R437H, K441E
chain 2: not shown
B5: IL6R-AP009/IL6R-BP259/IL6R-L (antibody)
chain 1: B1 chain 1 with Y298D
chain 2: B1 chain 1 with S126D, Y298D, K358D, R437H, K441E
chain 3: not shown
B6: IL6R-BP256/IL6R-L (antibody)
chain 1: B1 chain 1 with S126D, K358D, R437H, K441E
chain 2: not shown
B7: IL6R-BP259/IL6R-L (antibody)
chain 1: B1 chain 1 with S126D, Y298D, K358D, R437H, K441E
chain 2: not shown
B8: IL6R-BP260/IL6R-L (antibody)
chain 1: B1 chain 1 with S126E, Y298D, K358D, R437H, K441E
chain 2: not shown
B9: IL6R-AP029/IL6R-BP410/IL6R-L (antibody)
chain 1: B1 chain 1 with D270E, Y298D
chain 2: B1 chain 1 with L237T, D270E, Y298D, K358D, R437H, K441E
chain 3: not shown
B10: IL6R-AP029/IL6R-BP409/IL6R-L (antibody)
chain 1: B1 chain 1 with D270E, Y298D
chain 2: B1 chain 1 with L237E, D270E, Y298D, K358D, R437H, K441E
chain 3: not shown
B11: IL6R-BP419/IL6R-L (antibody)
chain 1: B1 chain 1 with L237F, D270E, Y298D, K358D, R437H, K441E
chain 2: not shown
B12: IL6R-BP408/IL6R-L (antibody)
chain 1: B1 chain 1 with L237Q, D270E, Y298D, K358D, R437H, K441E
chain 2: not shown
B13: IL6R-BP404/IL6R-L (antibody)
chain 1: B1 chain 1 with L236Y, D270E, Y298D, K358D, R437H, K441E
chain 2: not shown
B14: IL6R-AP029/IL6R-BP408/IL6R-L (antibody)
chain 1: B1 chain 1 with D270E, Y298D
chain 2: B1 chain 1 with L237Q, D270E, Y298D, K358D, R437H, K441E
chain 3: not shown
B15: IL6R-AP029/IL6R-BP407/IL6R-L (antibody)
chain 1: B1 chain 1 with D270E, Y298D
chain 2: B1 chain 1 with L237D, D270E, Y298D, K358D, R437H, K441E
chain 3: not shown
B16: BP557 (antibody)
chain 1: B1 chain 1 with D235E, S269G, Y298D, K358D, R437H, K441E
chain 2: not shown

biological target: T3, FcgRIIIaV (human, UniProt P08637); assay: SPR
T3 sequence (P08637 17-208 F176V): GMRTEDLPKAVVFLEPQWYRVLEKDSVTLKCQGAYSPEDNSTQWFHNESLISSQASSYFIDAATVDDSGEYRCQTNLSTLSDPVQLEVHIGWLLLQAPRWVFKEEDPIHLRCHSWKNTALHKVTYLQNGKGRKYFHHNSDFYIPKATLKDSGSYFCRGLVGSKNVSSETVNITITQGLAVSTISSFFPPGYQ

Kd | Binder
14 µM | B1
17 µM | B2
16 µM | B3
19 µM | B4
22 µM | B5
11 µM | B6
11 µM | B7
21 µM | B8

Biological target: T1, FcgRIIaH
Assay: SPR

Kd | Binder
39 µM | B4
21 µM | B6
18 µM | B7
3.9 µM | B8

biological target: T3, FcgRIIIaV; assay: SPR; remark: another data set of the same source

Kd | Binder
21 µM | B9
28 µM | B10
38 µM | B11
50 µM | B12
33 µM | B13
31 µM | B14
23 µM | B15

Biological target: T1, FcgRIIaH
Assay: SPR
Remark: another data set of the same source

Kd | Binder
5.1 µM | B9
9.4 µM | B10
38 µM | B11
77 µM | B12
3.4 µM | B13
8.2 µM | B14
8.9 µM | B15

Biological target: T2, FcgRIa
Assay: SPR

Kd | Binder
0.013 µM | B16
